Assay results as given in the supplement of paper PMC7125110.
± gives the standard error. Variants at the floor of the assay were thinned out.

B1: glmS ribozyme (parent)
chain: AUAAAAGCGCCAGAACUACAGAAAUGUAGUUGACGAGGAGGAGGUUUAUCGAAUUUUCGGCGGAUGCCUCCAAA

Variants of: B1
Test: self-cleavage kobs at 2500 uM GlcN6P; higher = faster cleavage; RNA array
Conditions: with glucosamine-6-phosphate
How it was run: (§1)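 A hybridised Cy3 probe tracked barcoded ribozyme variants, transcribed in situ by E. coli RNA polymerase on sequenced MiSeq chips, at 37 °C. The variants received 40 μM to 10 mM glucosamine-6-phosphate in HEPES/KCl/Mg(OAc)2 buffer. kobs came from decay fits and kcat and KM from weighted Michaelis–Menten fits.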

Variant	self-cleavage kobs at 2500 uM GlcN6P [s⁻¹]
AUAAAGGCGCCAGAACUACAGAAAUGUAGUUGACGCGGAGGAGGUUUAUCGAAUUUUAGGCGGAUGCCUCCAAA	< 1e-05
AUAAAAGCGCCGGAACUACAGAAAUGUAGUUGAUGAGGAGGAGGUUUAUCGUAUUUUCGGCGGAUGCCUCCAAA	< 1e-05
AUAAAAGCGCGAGAACUACAGAAAUGUAGUUGACGAGGAGGAGGUUAAUGGAAUUUUCGGCGGAUGCCUGCAAA	0.000352 ± 8.9e-05
AUAAAAGCGCCAGAACUACAGAAAUGUAGUUCACGCGGAGGAGGUUUAUCCACUUUUCGGCGGAUACCUCCAAA	< 1e-05
AUAAAAGCGCCAGACCUACAGAAAUGUAGUUGACGAGGAGGAGGUUUAUCGAAUUUUCGGCGGCUGCUUCCAAA	< 1e-05
AUAAAAGCGCCAGAACUACAGAAAUGUAGUUUACCAGGAGGAGGUGUAUCGAAUUUUCGGCGGAUGCCUCCAAA	< 1e-05
AUAAAAGCGCCAGAACUACAGAAAUGUAGUUGACGUGGAGGUGGUUUAUCGAAUUUUCUGCGGAUGCCUCCAAA	< 1e-05
AUAAAAGCGCCAAAUCUACAGAAAUGUAGUUGACGAGGAGGAGGUUUAUCGAAUUUUGGGCGGAGGCCUGCAAA	7.13e-05 ± 3.5e-05
AUAAAAGCGCCAGAACUACAGAAAUGUAGUUGACGAGGAGGAGGUUUAUCGAAUUUUCUGCGGAUCCCUCCAAA	< 1e-05
AUAAAAGCGCCAGAACUACAGAAAUGUAGUUGAUGAGGAGGAGGUUUAUAGAAUUUUCGGCGGAUGCCCCCAAA	0.000135 ± 6.7e-05
AUAAAAGCGCUAGAACUACAGAAAUGUAGAUGACGACGAGGAGGUUUAACGAAUUUUCGGCGGAUGCCUCCAAA	< 1e-05
AUAAACGCGCCAGAACUACAGAAAUGUAGUAGACGAGGAGGAGGUUUCUCGAAUUUUCGGCGGAUGCCUCCAAA	< 1e-05
AUAAAAGCGCCAGAACUACAGAAAUGUAGUUGACGAGGAGGAGAUAUUUCGACUUUUCGGCGGAUGCCUCCAAA	< 1e-05
AUAAAAGCGCCAGAACUACAGAAAUGUAAUUGACGAGGAGGAGGUUUUUCGAUUUUUAUGCGGAUGCCUCCAAA	< 1e-05
AUAAAAGCGCCAGAACUACAGAAAUGUAUUUGACGAGGAGGAGGUUGAUCGAAGUUUCGGCGGAUGCCUCCAAA	0.000533 ± 0.00012
AUAAAAGCGCCAGAACUACAGAAAUGUAGUUGACGAGGAGGAUGUUUCUCGAAUUUUCGGGGGAUGCCUCCAAA	< 1e-05
AUAAAAGCGGCAGAACUACAGAAAUGUAGGUGACGAGGUGGAGCUUUCUCGAAUUUUCGGCGGAUGCCUCCAAA	< 1e-05

Variant	self-cleavage kobs at 2500 uM GlcN6P [s⁻¹]
AUAAAAGCGCCAGGACUACAGAAAUGUAGUUGACUAGGAGGAGGUUUAUCGAAUUUUCGGCGGAUGUCUCCAAA	< 1e-05
AUAAAAGCGCCAGAACUACAGAAAUGUAGUUGCAGAGGAGGAGGUUUAUCGAAUUUUCGGCUGAUGCCUCUAAA	< 1e-05
AUAAAAGCCCCACAACUACAGAAAUGUAGUUGAAGAGGAGGAGGUUUAUCGAAUUUUCGGCCGGUGCCUCCAAA	< 1e-05
AUAAAAGCGCCAGAACUACAGAAAUGUAGUUGGCGAGGAGGAGGUGUAUCGAAUUUUCGGCGGAUGCUUCGAAA	0.000183 ± 5.3e-05
AUAAAAGCGCCAGACCUACAGAAAUGUAGUUGACGAGGAGGAGGUUUAUCGAAUUUUCGGCGGAUUCCCCCAAA	4.52e-05 ± 1.5e-05
AUAAAAUCGCCAGAACUACAGAAAUGUAGUUGACGAGGAGGAGGUUUAUCGAAUAAUCGGCGGAUGCCUCCAAA	< 1e-05
AUAAAAGCGCCGGAACUACAGAAAUGUAGUUGACGAGGAUGAGGUUUAUCGAAUUUUCGGCGGAUGUCUCCAAA	< 1e-05
AUAAAAGCGCCAGAACUACAGAAAUGUAGUUGACGAGGGCCAGGUGUAUCGGAUUUUCGGCGGAUGCCUCCAAA	< 1e-05
AUAAAAGCGCCAGAACUACAGAAAUGUAGGUUACAAGGAGGAGGUUUAUCGAGUUUUCGGCGGAUGCCUCCAAA	< 1e-05
AUAAAAGGGCCAGAACUACAUAAAUGUAGUUGACGAGGAGGAGGUUUAUCGAAUGUUCGUCGGAUGGCUCCAAA	< 1e-05
AUAAAAGCGCCAGCACUACAGAAAUGUAGUUGACGAGGGGGAGGUUUAUCGAAUUUUGGGCGGAUGCCUCCAAA	5e-05 ± 1.9e-05
AUAAAACCGCAAGAACUACAGAAAUGUAGUUGACGAGGAGGAGGUUUAUCGAAUUUUCGCCGGAUGCCUCCAAA	< 1e-05
AUAAAAGCCCCAGAACUACAGAAAUGUAGUUCACGAGGAGGAGGUUUAUCGAAUUUUCGGCGGAUGCCUACAAA	< 1e-05
AUAAAAGCGCCAGAACUACAGAAAUGUAGUUGACGAGGAAGAGGUUAAACGAAUUUUCGGCGGAUGCCUACAAA	< 1e-05
AUAAAAGCGCCAGAACUACAGAAAUGUAGUUGACGAGGAGGAGGUGUUUCGAAUUUUCGGAGGAUGCCUCCAAA	< 1e-05
AUAAAAGCGCCAGAACUACAGAAAUGUAUUUGACAAGGAGGUGGUUUAUCGAAUUUUCGGCGGAUGCCUCCAAA	< 1e-05
AUAAAAGCGCCAGAAUUACAGAAAUGUAGUUGACGAGGAGGAGGUUUAUCGAAUUUACGGCGGAUGCCUCCAAA	6.81e-05 ± 2.8e-05

Variants of: B1
Test: self-cleavage kobs at 10000 uM GlcN6P; higher = faster cleavage; RNA array
Conditions: with glucosamine-6-phosphate
How it was run: as §1

Variant	self-cleavage kobs at 10000 uM GlcN6P [s⁻¹]
AUAAACGCGCCAGAACUACAGAAAUGUAGUAGACGAGGAGGAGGUUUCUCGAAUUUUCGGCGGAUGCCUCCAAA	< 1e-05
AUAAAAGCGCCAGCACUACAGAAAUGUAGUUGACGAGGGGGAGGUUUAUCGAAUUUUGGGCGGAUGCCUCCAAA	8.88e-05 ± 1.6e-05
AUAAAAGCGCCAGAAUUACAGAAAUGUAGUUGACGAGGAGGAGGUUUAUCGAAUUUACGGCGGAUGCCUCCAAA	0.000194 ± 4.1e-05
